According to PMC9482650, “Quantitative fragmentomics allow affinity mapping of interactomes” (Nature Communications, 2022):

T1: APBA2_1, Q99767
T1 sequence (Q99767 563-664, limits assumed, looked up): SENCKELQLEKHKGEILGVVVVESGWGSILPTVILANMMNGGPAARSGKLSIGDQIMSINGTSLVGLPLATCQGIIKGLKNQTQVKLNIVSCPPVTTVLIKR

T2: APBA3_1, O96018
T2 sequence (O96018 389-490, limits assumed, looked up): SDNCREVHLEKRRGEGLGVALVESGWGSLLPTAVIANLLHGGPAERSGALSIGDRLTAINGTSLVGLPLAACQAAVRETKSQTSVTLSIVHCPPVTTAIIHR

T3: ARHGAP21, Q5T5U3
T3 sequence (Q5T5U3 45-169, limits assumed, looked up): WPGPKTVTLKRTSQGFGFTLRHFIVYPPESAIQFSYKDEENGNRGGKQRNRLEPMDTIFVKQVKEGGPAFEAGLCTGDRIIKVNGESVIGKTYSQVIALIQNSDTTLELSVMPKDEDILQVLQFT

T4: DLG3_1, Q92796
T4 sequence (Q92796 125-227, limits assumed, looked up): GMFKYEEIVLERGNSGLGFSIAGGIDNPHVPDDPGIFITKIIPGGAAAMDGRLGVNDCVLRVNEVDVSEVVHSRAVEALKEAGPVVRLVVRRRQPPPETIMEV

T5: DLG3_2, Q92796
T5 sequence (Q92796 221-321, limits assumed, looked up): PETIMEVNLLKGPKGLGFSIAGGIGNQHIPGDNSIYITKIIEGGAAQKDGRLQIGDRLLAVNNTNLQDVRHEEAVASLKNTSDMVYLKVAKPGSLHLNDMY

T6: DVL3, Q92997
T6 sequence (Q92997 244-331, limits assumed, looked up): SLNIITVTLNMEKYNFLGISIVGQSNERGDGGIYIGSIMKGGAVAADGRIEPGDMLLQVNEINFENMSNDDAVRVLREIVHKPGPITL

T7: FRMPD1, Q5SYB0
T7 sequence (Q5SYB0 52-145, limits assumed, looked up): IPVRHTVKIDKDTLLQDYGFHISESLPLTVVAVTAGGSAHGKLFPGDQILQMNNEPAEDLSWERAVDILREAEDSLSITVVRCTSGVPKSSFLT

T8: GRIP1_5, Q9Y3R0
T8 sequence (Q9Y3R0 568-668, limits assumed, looked up): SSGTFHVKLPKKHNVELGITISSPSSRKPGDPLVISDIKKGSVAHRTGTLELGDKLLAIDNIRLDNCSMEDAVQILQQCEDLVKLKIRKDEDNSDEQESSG

T9: PDZD7_3, Q9H5P4
T9 sequence (Q9H5P4 857-944, limits assumed, looked up): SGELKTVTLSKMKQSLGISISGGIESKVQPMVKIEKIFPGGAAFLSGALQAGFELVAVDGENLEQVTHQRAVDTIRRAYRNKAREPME

T10: SHANK1, Q9Y566
T10 sequence (Q9Y566 658-767, limits assumed, looked up): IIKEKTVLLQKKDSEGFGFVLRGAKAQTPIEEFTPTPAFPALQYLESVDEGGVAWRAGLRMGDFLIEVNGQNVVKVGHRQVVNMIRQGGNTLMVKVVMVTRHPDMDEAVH

T11: SNTB1, Q13884
T11 sequence (Q13884 107-205, limits assumed, looked up): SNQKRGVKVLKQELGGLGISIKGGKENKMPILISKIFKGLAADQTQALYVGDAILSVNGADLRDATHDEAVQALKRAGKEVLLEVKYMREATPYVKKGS

T12: SYNJ2BP, P57105
T12 sequence (P57105 8-110, limits assumed, looked up): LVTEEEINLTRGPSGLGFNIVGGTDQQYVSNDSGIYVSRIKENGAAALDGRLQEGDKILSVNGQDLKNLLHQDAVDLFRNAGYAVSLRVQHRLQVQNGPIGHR

T13: TJP3_3, O95049
T13 sequence (O95049 375-456, limits assumed, looked up): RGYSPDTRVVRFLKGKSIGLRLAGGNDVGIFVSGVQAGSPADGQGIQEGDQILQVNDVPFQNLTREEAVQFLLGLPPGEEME

B1: HNRNPK, P61978;P61978-2 (peptide)
chain: VKQYADVEGF
B2: EGLN1, Q9GZT9 (peptide)
chain: PSDSVGKDVF

Target: T1, APBA2_1, Q99767
Assay: holdup assay
Design: key: below the threshold = too weak to quantify, mostly under pKd 3.1 to 4
Settings: plain residues with an end cap or a label only (N-terminal biotin on a linker: ado-ado)

| pKd | Binder |
| --- | --- |
| below the threshold | B1 |
| below the threshold | B2 |

Target: T2, APBA3_1, O96018
Assay: holdup assay
Design: key: below the threshold = too weak to quantify, mostly under pKd 3.1 to 4
Settings: plain residues with an end cap or a label only (N-terminal biotin on a linker: ado-ado)

| pKd | Binder |
| --- | --- |
| below the threshold | B1 |
| below the threshold | B2 |

Target: T3, ARHGAP21, Q5T5U3
Assay: holdup assay
Design: key: below the threshold = too weak to quantify, mostly under pKd 3.1 to 4
Settings: plain residues with an end cap or a label only (N-terminal biotin on a linker: ado-ado)

| pKd | Binder |
| --- | --- |
| below the threshold | B1 |
| 3.47 | B2 |

Target: DLG1_2, Q12959
Sequence (Q12959 314-412): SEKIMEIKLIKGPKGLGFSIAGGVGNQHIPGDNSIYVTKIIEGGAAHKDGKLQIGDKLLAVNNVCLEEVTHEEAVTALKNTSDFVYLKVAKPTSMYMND
Assay: holdup assay
Design: key: below the threshold = too weak to quantify, mostly under pKd 3.1 to 4
Settings: plain residues with an end cap or a label only (N-terminal biotin on a linker: ado-ado)

| pKd | Binder |
| --- | --- |
| below the threshold | B2 |

Target: T4, DLG3_1, Q92796
Assay: holdup assay
Design: key: below the threshold = too weak to quantify, mostly under pKd 3.1 to 4
Settings: plain residues with an end cap or a label only (N-terminal biotin on a linker: ado-ado)

| pKd | Binder |
| --- | --- |
| below the threshold | B1 |
| below the threshold | B2 |

Target: T5, DLG3_2, Q92796
Assay: holdup assay
Design: key: below the threshold = too weak to quantify, mostly under pKd 3.1 to 4
Settings: plain residues with an end cap or a label only (N-terminal biotin on a linker: ado-ado)

| pKd | Binder |
| --- | --- |
| 4.09 | B1 |
| 4.07 | B2 |

Target: T6, DVL3, Q92997
Assay: holdup assay
Design: key: below the threshold = too weak to quantify, mostly under pKd 3.1 to 4
Settings: plain residues with an end cap or a label only (N-terminal biotin on a linker: ado-ado)

| pKd | Binder |
| --- | --- |
| below the threshold | B1 |
| below the threshold | B2 |

Target: T7, FRMPD1, Q5SYB0
Assay: holdup assay
Design: key: below the threshold = too weak to quantify, mostly under pKd 3.1 to 4
Settings: plain residues with an end cap or a label only (N-terminal biotin on a linker: ado-ado)

| pKd | Binder |
| --- | --- |
| below the threshold | B1 |
| below the threshold | B2 |

Target: GRID2IP_2, A4D2P6
Sequence (A4D2P6 272-370): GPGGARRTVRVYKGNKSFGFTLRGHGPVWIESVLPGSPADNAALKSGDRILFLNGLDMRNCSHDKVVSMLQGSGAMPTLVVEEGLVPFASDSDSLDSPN
Assay: holdup assay
Design: key: below the threshold = too weak to quantify, mostly under pKd 3.1 to 4
Settings: plain residues with an end cap or a label only (N-terminal biotin on a linker: ado-ado)

| pKd | Binder |
| --- | --- |
| below the threshold | B1 |
| below the threshold | B2 |

Target: T8, GRIP1_5, Q9Y3R0
Assay: holdup assay
Design: key: below the threshold = too weak to quantify, mostly under pKd 3.1 to 4
Settings: plain residues with an end cap or a label only (N-terminal biotin on a linker: ado-ado)

| pKd | Binder |
| --- | --- |
| below the threshold | B1 |
| below the threshold | B2 |

Target: GRIP2_4, Q9C0E4
Sequence (Q9C0E4 446-548): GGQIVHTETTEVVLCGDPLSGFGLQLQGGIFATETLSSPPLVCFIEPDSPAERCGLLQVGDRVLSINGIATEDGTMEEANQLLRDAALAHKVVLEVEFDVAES
Assay: holdup assay
Design: key: below the threshold = too weak to quantify, mostly under pKd 3.1 to 4
Settings: plain residues with an end cap or a label only (N-terminal biotin on a linker: ado-ado)

| pKd | Binder |
| --- | --- |
| below the threshold | B1 |
| below the threshold | B2 |

Target: HTRA1, Q92743
Sequence (Q92743 360-477): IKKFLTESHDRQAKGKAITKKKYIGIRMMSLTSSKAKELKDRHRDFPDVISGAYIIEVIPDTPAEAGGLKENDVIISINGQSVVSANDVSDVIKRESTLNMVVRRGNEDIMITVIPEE
Assay: holdup assay
Design: key: below the threshold = too weak to quantify, mostly under pKd 3.1 to 4
Settings: plain residues with an end cap or a label only (N-terminal biotin on a linker: ado-ado)

| pKd | Binder |
| --- | --- |
| below the threshold | B1 |
| 3.77 | B2 |

Target: Inadl_4, Q8NI35
Sequence (Q8NI35 547-651): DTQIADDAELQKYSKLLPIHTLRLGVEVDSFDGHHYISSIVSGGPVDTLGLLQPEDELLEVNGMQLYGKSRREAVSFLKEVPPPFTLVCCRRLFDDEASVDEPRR
Assay: holdup assay
Design: key: below the threshold = too weak to quantify, mostly under pKd 3.1 to 4
Settings: plain residues with an end cap or a label only (N-terminal biotin on a linker: ado-ado)

| pKd | Binder |
| --- | --- |
| below the threshold | B1 |
| below the threshold | B2 |

Target: Inadl_6, Q8NI35
Sequence (Q8NI35 1058-1167): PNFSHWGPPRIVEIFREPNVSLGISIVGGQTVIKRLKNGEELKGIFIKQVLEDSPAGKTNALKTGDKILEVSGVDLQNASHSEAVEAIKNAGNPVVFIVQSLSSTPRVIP
Assay: holdup assay
Design: key: below the threshold = too weak to quantify, mostly under pKd 3.1 to 4
Settings: plain residues with an end cap or a label only (N-terminal biotin on a linker: ado-ado)

| pKd | Binder |
| --- | --- |
| below the threshold | B1 |
| below the threshold | B2 |

Target: MAGI2_5, Q86UL8
Sequence (Q86UL8 915-1017): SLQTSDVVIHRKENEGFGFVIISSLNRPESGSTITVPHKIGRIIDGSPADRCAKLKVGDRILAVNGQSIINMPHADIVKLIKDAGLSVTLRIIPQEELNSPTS
Assay: holdup assay
Design: key: below the threshold = too weak to quantify, mostly under pKd 3.1 to 4
Settings: plain residues with an end cap or a label only (N-terminal biotin on a linker: ado-ado)

| pKd | Binder |
| --- | --- |
| below the threshold | B1 |
| below the threshold | B2 |

Target: MAGI2_6, Q86UL8
Sequence (Q86UL8 1141-1229): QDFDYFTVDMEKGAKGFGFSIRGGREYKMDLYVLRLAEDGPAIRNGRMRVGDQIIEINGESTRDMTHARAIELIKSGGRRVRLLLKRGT
Assay: holdup assay
Design: key: below the threshold = too weak to quantify, mostly under pKd 3.1 to 4
Settings: plain residues with an end cap or a label only (N-terminal biotin on a linker: ado-ado)

| pKd | Binder |
| --- | --- |
| below the threshold | B1 |
| below the threshold | B2 |

Target: MAST1, Q9Y2H9
Sequence (Q9Y2H9 962-1065): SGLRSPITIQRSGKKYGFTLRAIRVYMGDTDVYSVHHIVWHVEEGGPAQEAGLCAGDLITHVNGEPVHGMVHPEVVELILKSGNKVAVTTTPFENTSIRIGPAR
Assay: holdup assay
Design: key: below the threshold = too weak to quantify, mostly under pKd 3.1 to 4
Settings: plain residues with an end cap or a label only (N-terminal biotin on a linker: ado-ado)

| pKd | Binder |
| --- | --- |
| below the threshold | B1 |
| below the threshold | B2 |

Target: PDLIM1, O00151
Sequence (O00151 1-87): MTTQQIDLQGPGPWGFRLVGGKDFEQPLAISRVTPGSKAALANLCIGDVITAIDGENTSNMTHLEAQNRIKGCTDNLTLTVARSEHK
Assay: holdup assay
Design: key: below the threshold = too weak to quantify, mostly under pKd 3.1 to 4
Settings: plain residues with an end cap or a label only (N-terminal biotin on a linker: ado-ado)

| pKd | Binder |
| --- | --- |
| below the threshold | B1 |
| below the threshold | B2 |

Target: T9, PDZD7_3, Q9H5P4
Assay: holdup assay
Design: key: below the threshold = too weak to quantify, mostly under pKd 3.1 to 4
Settings: plain residues with an end cap or a label only (N-terminal biotin on a linker: ado-ado)

| pKd | Binder |
| --- | --- |
| below the threshold | B1 |
| below the threshold | B2 |

Target: SCRIB_2, Q14160
Sequence (Q14160 857-960): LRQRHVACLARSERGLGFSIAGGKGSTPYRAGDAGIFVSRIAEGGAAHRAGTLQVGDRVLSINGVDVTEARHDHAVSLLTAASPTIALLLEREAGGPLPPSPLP
Assay: holdup assay
Design: key: below the threshold = too weak to quantify, mostly under pKd 3.1 to 4
Settings: plain residues with an end cap or a label only (N-terminal biotin on a linker: ado-ado)

| pKd | Binder |
| --- | --- |
| below the threshold | B1 |
| below the threshold | B2 |

Target: T10, SHANK1, Q9Y566
Assay: holdup assay
Design: key: below the threshold = too weak to quantify, mostly under pKd 3.1 to 4
Settings: plain residues with an end cap or a label only (N-terminal biotin on a linker: ado-ado)

| pKd | Binder |
| --- | --- |
| below the threshold | B1 |
| below the threshold | B2 |

Target: T11, SNTB1, Q13884
Assay: holdup assay
Design: key: below the threshold = too weak to quantify, mostly under pKd 3.1 to 4
Settings: plain residues with an end cap or a label only (N-terminal biotin on a linker: ado-ado)

| pKd | Binder |
| --- | --- |
| below the threshold | B1 |
| below the threshold | B2 |

Target: T12, SYNJ2BP, P57105
Assay: holdup assay
Design: key: below the threshold = too weak to quantify, mostly under pKd 3.1 to 4
Settings: plain residues with an end cap or a label only (N-terminal biotin on a linker: ado-ado)

| pKd | Binder |
| --- | --- |
| below the threshold | B1 |
| below the threshold | B2 |

Target: T13, TJP3_3, O95049
Assay: holdup assay
Design: key: below the threshold = too weak to quantify, mostly under pKd 3.1 to 4
Settings: plain residues with an end cap or a label only (N-terminal biotin on a linker: ado-ado)

| pKd | Binder |
| --- | --- |
| below the threshold | B1 |
| below the threshold | B2 |
